{"source": "patent US20210292423A1", "about": "(published 2021)", "binders": {"B1": {"name": "13H2-C3 anti-CD3 antibody (hybridoma supernatant) (antibody, V domains shown)", "VH": "EEELVETGGSLVQPGKSLKLTCATSGFTFSNAWMHWVRQSPDKQLEWVAQIKAKSNNYATYYAESVKGRFTISRDDSKSSVYLQMNNLKEEDTAIYYCRYVHYGLAPMDAWGQGTSVTVSS", "VL": "DVVMTQTPVSLSVSLGGQVSISCRSSQSLVHNNGNTYLSWYLQKAGQSPQLLIYKVSNRFSGISDRFSGSGSGTDFILKISRVEPDDLGVFYCGQGTQYPFTFGAGTKLELK", "notes": "rat IgG in hybridoma supernatant; also called 13H2-C2"}, "B2": {"name": "18H11-F10 anti-CD3 antibody (hybridoma supernatant) (antibody, V domains shown)", "VH": "EVQLVESGGGLVQPGRSLKLSCAASGFIFSDYYMAWVRQAPKKGLEWVATISISGSRTYYPDSVKGRFTVSRDNAKSSLYLQMNSLKSEDTATYYCATNNPGGWFVYWGQGTLVTVSS", "VL": "NIQMTQSPSLLSASVGDRVTLSCKAGQNINNDLAWYQQKLGEAPRLLIYNANSLQTGIPSRFSGSGSGADFTLTISSLQPEDVATYFCQQYSSGDTFGAGTKLELK", "notes": "rat IgG in hybridoma supernatant"}, "B3": {"name": "6C9-C9 anti-CD3 antibody (hybridoma supernatant) (antibody, V domains shown)", "VH": "AVQLVESGGGLVRPKESLKISCAASGFTFRNAAMYWVRQAPGKGLEWVARIRTQPNNYAKYYADSVKDRFTISRDDSKSMVYLQMDNLKTEDTAMYYCTGLVVTAMDAWGQGTSVTVSS", "VL": "DIQMTQSPSFLSASVGDRVTINCKASQNINKYLNWYQQKLGEAPKLLIYVTNNLQTGIPSRFSGSGSGTDYTLTISSLQPEDVATYFCLQHRSMYTFGTGTKLELK", "notes": "as for B2"}, "B4": {"name": "11F9-F8 anti-CD3 antibody (hybridoma supernatant) (antibody, V domains shown)", "VH": "EVQLVETGGTLVQPGKSLKLTCATSGFTFSNAWMHWVRQSPEKQLEWVAQIKAKSNNYATYYAESVKGRFTISRDDSKTSVYLQLNSLREEDTAIYYCRGTQYGYNPFDYWGQGVMVTVSS", "VL": "DVVLTQTPVSLSVSLGGQVSISCRSSQSLVHNNGNTYLSWSLQKPGQSPQVLIYKVSNRFSGISNRFSGSGSGTDFTLKISRVEPDDLGVYYCGQGAHYPFTFGSGTKLEIK", "notes": "as for B2"}, "B5": {"name": "4E7-C9 anti-CD3 antibody (hybridoma supernatant) (antibody, V domains shown)", "VH": "EVQVVETGGSLVQPGKSLKLTCATSGFTFSNAWMHWVRQSPEKQLEWVAQIKDKSNNYATYYAESLKGRFTISRDDPKRSIYLQMNSLREEDTAIYYCRYVHYGIGYAMDAWGQGTSVTVSS", "VL": "B1 VL with V30E, A45P, L51P, I77T, F91Y, A105P", "notes": "as for B2"}, "B6": {"name": "10E6-G6 anti-CD3 antibody (hybridoma supernatant) (antibody, V domains shown)", "VH": "B4 VH with T10G, P14S, F29V, S30T, A59E, T79S, L85M, R89K", "VL": "B4 VL with L4M, T7S, N35Y, S41Y, L52F, N65D, V83I, A97T", "notes": "as for B2"}, "B7": {"name": "11D7-C3 anti-CD3 antibody (hybridoma supernatant) (antibody, V domains shown)", "VH": "EVQFVETGGSLVQPGKSLKLTCATSGFTFSNAWMHWVRQSPEKQLEWVAQIKAKSNNYATYYAESVKGRFTISRDDSKSSVYLQMNSLKEEDTATYYCRGLYYGLSPSDYWGQGVMVTVSS", "VL": "B4 VL with L4M, S41Y, V51L, N65D, A97T", "notes": "as for B2"}, "B8": {"name": "10F4-C10 anti-CD3 antibody (hybridoma supernatant) (antibody, V domains shown)", "VH": "B7 VH with F4L, L20I, V81I, T95I, G100A, L101V, Y102N, L105N, S106Y, S108L", "VL": "B1 VL with Y41C, A45P, I77T, F91Y", "notes": "as for B2"}, "B9": {"name": "20E5-F10 anti-CD3 antibody (hybridoma supernatant) (antibody, V domains shown)", "VH": "EVQLVETGENLVQPGKSLRLTCATSGFSFSNAWMHWIRQSPEKQLEWVAQIKDKSNNYATYYAESVNGRFTISRDDSKSSIYLHMDNLKEEDSAIYYCRYVHYGVRFFYTMDVWGQGTSVTVSS", "VL": "B4 VL with L4M, G17D, S25P, S41Y, Q50H, V51P, N65D, A97T, H98Q", "notes": "as for B2"}, "B10": {"name": "12G3-E8 anti-CD3 antibody (hybridoma supernatant) (antibody, V domains shown)", "VH": "EVRVVETGGSLVQPGKSLKLTCATSGFTFSLAWMHWVRQSPEKKLEWVAQIKDKANNYATYYAESVKGRFTISRDDSKRSVYLQMNRLKEEDTAIYYCRGVYYGFSMTPFDYWGQGVMVTVSS", "VL": "B1 VL with V3A, A45P, L51V, T74A, I77T, F91Y", "notes": "as for B2"}, "B11": {"name": "18G9-H11 anti-CD3 antibody (hybridoma supernatant) (antibody, V domains shown)", "VH": "EVQLVETGGSLVQPGKSLKLTCATSGFTFSNAWIQWVRQSPEKQLEWVAQIKAKSNNYATYYAESVKGRFTISRDDSKSSVYLQMNSLKEEDTALYYCTWRHYYSSHTMDAWGQGTLVTVSS", "VL": "B1 VL with A45P, I77T, E84A, D86T, F91Y, T97S", "notes": "as for B2"}, "B12": {"name": "16F8-A7 anti-CD3 antibody (hybridoma supernatant) (antibody, V domains shown)", "VH": "VETGGNLVQPGKSLKLTCATSGFTFSNAWMHWVRQSPEKQLEWVAQIKAKSNNYATYYAESVKGRFTISRDDSKSSVYLQMNSLKEEDTAIYYCRYVNYGLAPMDVWGQGTSVTVSS", "VL": "B1 VL with A45P, I63F, I77T, F91Y", "notes": "as for B2"}, "B13": {"name": "4B4-D7 anti-CD3 antibody (hybridoma supernatant) (antibody, V domains shown)", "VH": "EVQLVETGGRLVQPGRSLKLTCATSGFTFSNAWMHWVRQSPEKQLEWVAQIKARSNNYATYYAESVKGRFTISRDDSKSTIYLQMNSLKEEDTAIYYCRGTYYASKPFDYWGQGVMVTVSS", "VL": "B4 VL with L4M, N32D, K44R, I63T, N65D, S68T, A97T, H98Q", "notes": "as for B2"}, "B14": {"name": "3H6-D2 anti-CD3 antibody (hybridoma supernatant) (antibody, V domains shown)", "VH": "EVQLVETGGRLVQPGKSLKLTCATSGFTFSNAWMHWVRQSPEKQLEWVAQIKDKSNNYATYYAESVKGRFTISRDDSKSIIYLQMNSLKEEDTAIYYCRALTYYGYKRDAMDGWGHGTSVTVSS", "VL": "B1 VL with A45P, I77T, F91Y", "notes": "as for B2"}, "B15": {"name": "11F3-B9 anti-CD3 antibody (hybridoma supernatant) (antibody, V domains shown)", "VH": "B1 VH with E2V, E3Q, K19T, D42E, S79R, N87S, H102N, A110V", "VL": "B1 VL with N32D, A45P, I63F, I77T, F91Y", "notes": "as for B2"}, "B16": {"name": "13C1-F6 anti-CD3 antibody (hybridoma supernatant) (antibody, V domains shown)", "VH": "B4 VH", "VL": "B1 VL with T7S, K44R, A45S, F60L, I77T, V83I, F91Y, A105S, K108R, L111I", "notes": "as for B2"}, "B17": {"name": "8H2-F3 anti-CD3 antibody (hybridoma supernatant) (antibody, V domains shown)", "VH": "QIQLVQSGPELKKPGESVKISCKASGYTFTDFAMNWVKQAPGNGLKWMGWINTQTGKPTYADGFKQRFVFSLETSASTIYLQINNLNIEDTATYFCTRGALASVGQGVMVTVSS", "VL": "DVVMTQTPVSLSVAIGQPASISCKSSQSLVGTSGKTYLNWLLQRPGQSPKRLIYLVSKLDSGIPDRFSGSGSETDFTLKISRVETDDLGVYYCLQGSHFPLTFGSGTKLEIK", "notes": "as for B2"}, "B18": {"name": "CODV-Fab 7G3 × 20G6 with humanized 20G6 VL1C_VH1D (bispecific antibody)", "light": "DIVMTQTPLSLSVTPGQPASISCKSSQSLVHNNANTYLSWYLQKPGQSPQSLIYKVSNRFSGVPDRFSGSGSGTDFTLKISRVEAEDVGVYYCGQGTQYPFTFGSGTKVEIKGQPKAAPDFVMTQSPSSLTVTAGEKVTMSCKSSQSLLNSGNQKNYLTWYLQKPGQPPKLLIYWASTRESGVPDRFTGSGSGTDFTLTISSVQAEDLAVYYCQNDYSYPYTFGGGTKLEIKTKGPSRTVAAPSVFIFPPSDEQLKSGTASVVCLLNNFYPREAKVQWKVDNALQSGNSQESVTEQDSKDSTYSLSSTLTLSKADYEKHKVYACEVTHQGLSSPVTKSFNRGEC", "heavy": "EVQLQQSGPELVKPGASVKMSCKASGYTFTDYYMKWVKQSHGKSLEWIGDIIPSNGATFYNQKFKGKATLTVDRSSSTAYMHLNSLTSEDSAVYYCTRSHLLRASWFAYWGQGTLVTVSASQVQLVESGGGVVQPGRSLRLSCAASGFTFTKAWMHWVRQAPGKQLEWVAQIKDKSNSYATYYADSVKGRFTISRDDSKNTLYLQMNSLRAEDTAVYYCRGVYYALSPFDYWGQGTLVTVSSRTASTKGPSVFPLAPSSKSTSGGTAALGCLVKDYFPEPVTVSWNSGALTSGVHTFPAVLQSSGLYSLSSVVTVPSSSLGTQTYICNVNHKPSNTKVDKKVEPKSCDKTHTHHHHHH"}, "B19": {"name": "CODV-Fab 7G3 × 20G6 with humanized 20G6 VL1D_VH1C (bispecific antibody)", "light": "B18 light with A34G", "heavy": "B18 heavy with D185A"}, "B20": {"name": "CODV-Fab 7G3 × 20G6 with humanized 20G6 VL1D_VH1D (bispecific antibody)", "light": "B18 light with A34G", "heavy": "B18 heavy", "notes": "same V domains as hz20G6x7G3 but the other order"}}, "note": "Positions count from the first letter of the chain named.", "data": [{"biological_target": "T1, human CD3ε/δ-Fc fusion protein (soluble recombinant CD3ε/δ complex) (human, UniProt P04234 22-105)", "T1 construct": "also called huCD3ε/δ; huCD3; not shown: hinge, CH2, CH3 of human IgG with tag", "T1 sequence (chain, as listed by the source mutant, chain 1 of 2)": "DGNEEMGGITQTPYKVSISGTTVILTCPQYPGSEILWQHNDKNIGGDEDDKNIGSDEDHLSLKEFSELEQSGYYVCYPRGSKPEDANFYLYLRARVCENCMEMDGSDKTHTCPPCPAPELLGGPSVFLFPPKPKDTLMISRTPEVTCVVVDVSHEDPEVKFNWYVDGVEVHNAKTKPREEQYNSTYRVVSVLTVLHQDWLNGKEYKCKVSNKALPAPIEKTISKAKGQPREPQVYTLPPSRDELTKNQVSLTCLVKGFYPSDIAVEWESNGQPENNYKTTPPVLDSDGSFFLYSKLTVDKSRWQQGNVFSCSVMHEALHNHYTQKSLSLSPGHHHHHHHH", "T1 sequence (P04234 22-105, stated change not applied, chain 2 of 2)": "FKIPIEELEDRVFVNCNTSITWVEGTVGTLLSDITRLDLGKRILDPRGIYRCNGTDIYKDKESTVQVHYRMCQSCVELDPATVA", "test": "SPR single point, hybridoma supernatant", "experimental": "Rats with positive sera were scarified and B cells were fused with mouse myeloma cells. The resulting hybrndomas were screened on HEK293 cells transfected with human or cynomoligus CD3ε and CD3δ expression plasmids, on Jurkat E6.1 (CD3+) and Jurkat T3.5 (CD3-) by flow cytometry. Supernatant of Hybridoma clones was used to assess by surface plasmon resonance single point kinetic against human and Macaca fascicularis CD3ε/δ complex by fixing the analyte at 25 nM (data presented in table 3).", "units": {"RU at 25 nM": "RU"}, "values": [{"binder": "B1", "RU at 25 nM": 16}, {"binder": "B2", "RU at 25 nM": 35}, {"binder": "B3", "RU at 25 nM": 26}, {"binder": "B4", "RU at 25 nM": 11.5}, {"binder": "B5", "RU at 25 nM": 2.5}, {"binder": "B6", "RU at 25 nM": 10.5}, {"binder": "B7", "RU at 25 nM": 17}, {"binder": "B8", "RU at 25 nM": 22}, {"binder": "B9", "RU at 25 nM": 12}, {"binder": "B10", "RU at 25 nM": 24}, {"binder": "B11", "RU at 25 nM": 7}, {"binder": "B12", "RU at 25 nM": 17.5}, {"binder": "B13", "RU at 25 nM": 11}, {"binder": "B14", "RU at 25 nM": 9.5}, {"binder": "B15", "RU at 25 nM": 22}, {"binder": "B16", "RU at 25 nM": 17}, {"binder": "B17", "RU at 25 nM": 32.5}]}, {"biological_target": "T1, human CD3ε/δ-Fc fusion protein (soluble …)", "test": "SPR Biacore, CODV-Fab on recombinant CD3ε/δ", "experimental": "Binding affinities of anti-CD3 binding Fabs or CODV-Fabs were measured by surface plasmon resonance (SPR) using a Biacore3000 instrument (GE Healthcare). Assay buffer was HBS-EP (BR-1001-88, GE Healthcare). Capture of CD3ε/δ-Fc fusion proteins was achieved using the human antibody capture kit (GE Healthcare). […] The CD3εδ-Fc fusions proteins were captured at 10 μl/min to approx. 70 RU to yield Rmax values of 30 RU. Binding kinetics with the anti-CD3 Fabs or CODV-Fabs was measured at 30 μl/min for 240 sec. and 600 sec. for association and dissociation phase, respectively. Twofold dilutions of Fabs from 3 to 400 nM in assay buffer were used. All Fab concentrations were run in duplicate together with duplicate buffer blanks for double referencing. Regeneration of the capture surface was performed with a 1 min injection of 3M MgCl2 solution at 30 μl/min. For data analysis the BIAevaluation software v.4.1 (GE Healthcare) was used. Data were fit globally using a 1:1 Langmuir model with mass transfer.", "units": {"Kd": "nM", "koff": "s⁻¹", "kon": "M⁻¹ s⁻¹"}, "values": [{"binder": "B18", "Kd": 44, "koff": 0.00101, "kon": 23000}, {"binder": "B19", "Kd": 32.1, "koff": 0.000713, "kon": 22200}, {"binder": "B20", "Kd": 31, "koff": 0.000746, "kon": 24000}]}]}
